Values belong to the substance of their own block, whether it stands above or below them.
What was measured:
[1] = target: KEAP1 (wild-type full-length), His-tagged (human) (UniProt Q14145); experiment: AlphaScreen; over 9.6, 19.2 and 38.4 nM NRF2; 150 nM His-KEAP1
[2] = target: KEAP1 (wild-type full-length), His-tagged (human) (UniProt Q14145); experiment: AlphaScreen; 9.6 nM FLAG-NRF2, 150 nM His-KEAP1; Repeat 2 (same value as in Table 23)
[3] = target: KEAP1 (wild-type full-length), His-tagged (human) (UniProt Q14145); experiment: AlphaScreen; 38.4 nM FLAG-NRF2, 150 nM His-KEAP1 (same value as in Table 23)
[4] = target: KEAP1 (wild-type full-length), His-tagged (human) (UniProt Q14145); experiment: AlphaScreen; 1228.8 nM FLAG-NRF2, 150 nM His-KEAP1; Rep 2
[5] = target: KEAP1 (wild-type full-length), His-tagged (human) (UniProt Q14145); experiment: AlphaScreen; 38.4 nM FLAG-NRF2, 150 nM His-KEAP1; against wild-type NRF2 isoform 2 = 100%
[6] = target: KEAP1 (wild-type full-length), His-tagged (human) (UniProt Q14145); experiment: AlphaScreen; mean over 9.6, 19.2 and 38.4 nM NRF2; 150 nM His-KEAP1; against wild-type NRF2 isoform 2
[7] = target: KEAP1 (wild-type full-length), His-tagged (human) (UniProt Q14145); experiment: AlphaScreen; 19.2 nM FLAG-NRF2, 150 nM His-KEAP1; against wild-type NRF2 isoform 2 = 100%
[8] = target: KEAP1 (wild-type full-length), His-tagged (human) (UniProt Q14145); experiment: AlphaScreen; 9.6 nM FLAG-NRF2, 150 nM His-KEAP1 (same value as in Table 23)
[9] = target: KEAP1 (wild-type full-length), His-tagged (human) (UniProt Q14145); experiment: AlphaScreen; 19.2 nM FLAG-NRF2, 150 nM His-KEAP1; Repeat 1 (same value as in Table 23)
[10] = target: KEAP1 (wild-type full-length), His-tagged (human) (UniProt Q14145); experiment: AlphaScreen, all variants on one plate; optimal condition (19.2 nM NRF2), KEAP1 150 nM; relative to NRF2 (WT) isoform 2
[11] = target: KEAP1 (wild-type full-length), His-tagged (human) (UniProt Q14145); experiment: AlphaScreen; average of three conditions; against wild-type NRF2 isoform 2
[12] = target: KEAP1 (wild-type full-length), His-tagged (human) (UniProt Q14145); experiment: AlphaScreen; 9.6 nM FLAG-NRF2, 150 nM His-KEAP1; Repeat 1 (same value as in Table 23)
[13] = target: KEAP1 (wild-type full-length), His-tagged (human) (UniProt Q14145); experiment: AlphaScreen, all variants on one plate; upper condition (38.4 nM NRF2), KEAP1 150 nM; relative to NRF2 (WT) isoform 2
[14] = target: KEAP1 (wild-type full-length), His-tagged (human) (UniProt Q14145); experiment: AlphaScreen; mean over 9.6, 19.2 and 38.4 nM NRF2; 150 nM His-KEAP1; against wild-type NRF2 isoform 2 = 100%
[15] = target: KEAP1 (wild-type full-length), His-tagged (human) (UniProt Q14145); experiment: AlphaScreen, all variants on one plate; lower condition (9.6 nM NRF2), KEAP1 150 nM; relative to NRF2 (WT) isoform 2
[16] = target: KEAP1 (wild-type full-length), His-tagged (human) (UniProt Q14145); experiment: AlphaScreen, all variants on one plate; average of three conditions ± standard deviation, KEAP1 150 nM; relative to NRF2 (WT) isoform 2
[17] = target: KEAP1 (wild-type full-length), His-tagged (human) (UniProt Q14145); experiment: AlphaScreen; 38.4 nM FLAG-NRF2, 150 nM His-KEAP1; Repeat 2 (same value as in Table 23)
[18] = target: KEAP1 (wild-type full-length), His-tagged (human) (UniProt Q14145); experiment: AlphaScreen; 9.6 nM FLAG-NRF2, 150 nM His-KEAP1; Repeat 2 (same value as in Table 22)
[19] = target: KEAP1 (wild-type full-length), His-tagged (human) (UniProt Q14145); experiment: AlphaScreen; 19.2 nM FLAG-NRF2, 150 nM His-KEAP1; wild type set to 100%
[20] = target: KEAP1 (wild-type full-length), His-tagged (human) (UniProt Q14145); experiment: AlphaScreen; 38.4 nM FLAG-NRF2, 150 nM His-KEAP1; wild type set to 100%
[21] = target: KEAP1 (wild-type full-length), His-tagged (human) (UniProt Q14145); experiment: AlphaScreen; 9.6 nM FLAG-NRF2, 150 nM His-KEAP1; wild type set to 100%
[22] = target: KEAP1 (wild-type full-length), His-tagged (human) (UniProt Q14145); experiment: AlphaScreen; 9.6 nM FLAG-NRF2, 150 nM His-KEAP1 (same value as in Table 22)
[23] = target: KEAP1 (wild-type full-length), His-tagged (human) (UniProt Q14145); experiment: AlphaScreen, all variants on one plate; upper condition (38.4 nM NRF2), KEAP1 150 nM; the reference itself
[24] = target: KEAP1 (wild-type full-length), His-tagged (human) (UniProt Q14145); experiment: AlphaScreen; 19.2 nM FLAG-NRF2, 150 nM His-KEAP1; Repeat 1 (same value as in Table 22)
[25] = target: KEAP1 (wild-type full-length), His-tagged (human) (UniProt Q14145); experiment: AlphaScreen, all variants on one plate; average of three conditions, KEAP1 150 nM; the reference itself
[26] = target: KEAP1 (wild-type full-length), His-tagged (human) (UniProt Q14145); experiment: AlphaScreen; 38.4 nM FLAG-NRF2, 150 nM His-KEAP1 (same value as in Table 22)
[27] = target: KEAP1 (wild-type full-length), His-tagged (human) (UniProt Q14145); experiment: AlphaScreen; 19.2 nM FLAG-NRF2, 150 nM His-KEAP1 (same value as in Table 22)

KEAP1 (wild-type full-length), His-tagged (human), sequence (Q14145 2-624 limits assumed, form in doubt): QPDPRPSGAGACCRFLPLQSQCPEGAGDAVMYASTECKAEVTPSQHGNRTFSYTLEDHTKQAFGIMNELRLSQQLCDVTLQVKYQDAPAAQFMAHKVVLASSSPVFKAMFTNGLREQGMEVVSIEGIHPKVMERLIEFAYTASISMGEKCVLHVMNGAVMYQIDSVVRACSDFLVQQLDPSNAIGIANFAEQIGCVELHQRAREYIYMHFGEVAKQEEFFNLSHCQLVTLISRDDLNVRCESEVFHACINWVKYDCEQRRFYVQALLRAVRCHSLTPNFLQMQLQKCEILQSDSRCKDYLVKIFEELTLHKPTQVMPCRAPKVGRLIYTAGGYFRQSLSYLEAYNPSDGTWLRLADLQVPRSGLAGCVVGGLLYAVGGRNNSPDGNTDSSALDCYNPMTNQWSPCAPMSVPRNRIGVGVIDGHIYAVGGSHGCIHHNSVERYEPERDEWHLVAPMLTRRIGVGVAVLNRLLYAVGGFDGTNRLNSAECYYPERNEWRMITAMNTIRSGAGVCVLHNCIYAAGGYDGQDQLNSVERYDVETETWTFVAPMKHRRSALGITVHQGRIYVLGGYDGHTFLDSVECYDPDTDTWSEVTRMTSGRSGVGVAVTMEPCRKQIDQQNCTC

Standard Deviation (of binding percentage) [1]: 10.2%
A-counts [2]: 1520 A-counts
S/N [3]: 1.8
A-counts [4]: 1210 A-counts
Binding Percentage (%) [5]: 37.8%
Avg. Reduction in Binding [6]: 69.1%
Binding Percentage (%) [7]: 19.2%
S/N [8]: 1.8
A-counts [9]: 1700 A-counts
% Disruption in Binding [10]: 59.7%
Reported Value (reduction in binding) [11]: 69.1%
A-counts [12]: 1670 A-counts
% Disruption in Binding [13]: 61.9%
Average Binding [14]: 30.9%
% Disruption in Binding [15]: 63.4%
% Disruption in Binding (Reported Values) [16]: 61.7%
A-counts [17]: 1960 A-counts
Substance: NRF2 isoform 2 (E63G/E66G full-length), FLAG-tagged

A-counts [18]: 2590 A-counts
Binding Percentage (%) [19]: 100%
Binding Percentage (%) [20]: 100%
Binding Percentage (%) [21]: 100%
A-counts [4]: 1470 A-counts
S/N [22]: 3.7
% Disruption in Binding [23]: 0%
A-counts [24]: 3480 A-counts
% Disruption in Binding (Reported Values) [25]: 0%
S/N [26]: 3.4
S/N [27]: 4.2
Substance: NRF2 isoform 2 (wild-type full-length), FLAG-tagged

Source: patent US20250352667A1
